In patent US20130280763A1 (IMBA INSTITUT FUR MOLEKULARE BIOTECHNOLOGIE, published 2013):
Values belong to the binder of their own block, whether it stands above or below them.

B2: CGI-99 (other, human, UniProt Q9Y224 1-244, looked up)
chain: MFRRKLTALDYHNPAGFNCKDETEFRNFIVWLEDQKIRHYKIEDRGNLRNIHSSDWPKFFEKYLRDVNCPFKIQDRQEAIDWLLGLAVRLEYGDNAEKYKDLVPDNSKTADNATKNAEPLINLDVNNPDFKAGVMALANLLQIQRHDDYLVMLKAIRILVQERLTQDAVAKANQTKEGLPVALDKHILGFDTGDAVLNEAAQILRLLHIEELRELQTKINEAIVAVQAIIADPKTDHRLGKVGR
notes: Endogenous protein that co-purifies from cell extract
B5: FLAG-tagged HSPC117 (enzyme, human, UniProt Q9Y3I0 1-505, looked up)
chain: MSRSYNDELQFLEKINKNCWRIKKGFVPNMQVEGVFYVNDALEKLMFEELRNACRGGGVGGFLPAMKQIGNVAALPGIVHRSIGLPDVHSGYGFAIGNMAAFDMNDPEAVVSPGGVGFDINCGVRLLRTNLDESDVQPVKEQLAQAMFDHIPVGVGSKGVIPMNAKDLEEALEMGVDWSLREGYAWAEDKEHCEEYGRMLQADPNKVSARAKKRGLPQLGTLGAGNHYAEIQVVDEIFNEYAAKKMGIDHKGQVCVMIHSGSRGLGHQVATDALVAMEKAMKRDKIIVNDRQLACARIASPEGQDYLKGMAAAGNYAWVNRSSMTFLTRQAFAKVFNTTPDDLDLHVIYDVSHNIAKVEQHVVDGKERTLLVHRKGSTRAFPPHHPLIAVDYQLTGQPVLIGGTMGTCSYVLTGTEQGMTETFGTTCHGAGRALSRAKSRRNLDFQDVLDKLADMGIAIRVASPKLVMEEAPESYKNVTDVVNTCHDAGISKKAIKLRPIAVIKG
notes: also called FLAG-HSPC117; FLAG-RTCB; not shown: FLAG tag

How the values were obtained:
HSPC117, Q9Y3I0 = target: T1, HSPC117, Q9Y3I0
T1 chain: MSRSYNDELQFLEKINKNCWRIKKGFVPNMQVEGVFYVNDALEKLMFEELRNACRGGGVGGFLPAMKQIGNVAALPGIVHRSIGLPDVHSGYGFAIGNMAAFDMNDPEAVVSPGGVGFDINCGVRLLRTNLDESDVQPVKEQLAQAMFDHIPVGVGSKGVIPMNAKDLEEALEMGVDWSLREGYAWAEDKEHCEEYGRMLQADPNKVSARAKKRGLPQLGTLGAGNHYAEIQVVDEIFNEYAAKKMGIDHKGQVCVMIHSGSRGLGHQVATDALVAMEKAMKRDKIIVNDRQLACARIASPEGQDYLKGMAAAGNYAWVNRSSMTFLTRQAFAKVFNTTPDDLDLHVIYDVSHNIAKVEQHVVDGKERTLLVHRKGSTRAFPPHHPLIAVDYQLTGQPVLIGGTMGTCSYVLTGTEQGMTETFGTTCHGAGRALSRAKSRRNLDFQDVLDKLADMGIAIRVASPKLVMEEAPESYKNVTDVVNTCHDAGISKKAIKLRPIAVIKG

FLAG-tagged HSPC117 [1] = target: B5; test: FLAG affinity purification, co-purifying proteins on a gel (FIG. 1A)
FLAG-tagged HSPC117 [2] = target: B5; test: FLAG affinity purification at 150 mM NaCl, Coomassie stained gel (FIG. 4A)
Description: (§1) A) Coomassie Blue stained preparations of FLAG-tagged Archease and HSPC117 affinity purified at 150 mM NaCl. B) RNA ligase activity assay of FLAG-HSPC117 and FLAG-Archease using pre-cleaved tRNA substrates. Extracts of HEK 293 cells were used as a negative control. * Indicates unspecific products.
(§2) Stable cell lines expressing a FLAG-tagged version of Archease and HSPC117 were generated to perform immuno-precipitations. Fluted FLAG-Archease was assayed for tRNA ligation in parallel with FLAG-HSPC117, which contains the entire tRNA ligase complex. […] RNA ligase activity was only detectable in reactions containing affinity-purified RNA ligase complex but not FLAG-tagged Archease (FIG. 4B).

ASW = target: T2, ASW (human, UniProt Q9BVC5 1-232, limits assumed); test: as above
T2 construct: Endogenous protein that co-purifies from cell extract
T2 sequence (looked up): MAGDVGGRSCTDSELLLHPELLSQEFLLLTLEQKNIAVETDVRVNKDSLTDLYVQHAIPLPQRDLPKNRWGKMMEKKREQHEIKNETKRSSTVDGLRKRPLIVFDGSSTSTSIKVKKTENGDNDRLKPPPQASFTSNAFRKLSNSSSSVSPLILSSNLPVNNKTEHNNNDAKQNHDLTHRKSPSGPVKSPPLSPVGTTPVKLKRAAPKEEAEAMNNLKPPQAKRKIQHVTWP
Description: as §1, §2

CGI-99 = target: B2; test: as above
Description: as §1, §2

DDX1 [3] = target: T3, DDX1 (human, UniProt Q92499 1-740); test: as above
T3 construct: Endogenous protein that co-purifies from cell extract
T3 sequence (looked up): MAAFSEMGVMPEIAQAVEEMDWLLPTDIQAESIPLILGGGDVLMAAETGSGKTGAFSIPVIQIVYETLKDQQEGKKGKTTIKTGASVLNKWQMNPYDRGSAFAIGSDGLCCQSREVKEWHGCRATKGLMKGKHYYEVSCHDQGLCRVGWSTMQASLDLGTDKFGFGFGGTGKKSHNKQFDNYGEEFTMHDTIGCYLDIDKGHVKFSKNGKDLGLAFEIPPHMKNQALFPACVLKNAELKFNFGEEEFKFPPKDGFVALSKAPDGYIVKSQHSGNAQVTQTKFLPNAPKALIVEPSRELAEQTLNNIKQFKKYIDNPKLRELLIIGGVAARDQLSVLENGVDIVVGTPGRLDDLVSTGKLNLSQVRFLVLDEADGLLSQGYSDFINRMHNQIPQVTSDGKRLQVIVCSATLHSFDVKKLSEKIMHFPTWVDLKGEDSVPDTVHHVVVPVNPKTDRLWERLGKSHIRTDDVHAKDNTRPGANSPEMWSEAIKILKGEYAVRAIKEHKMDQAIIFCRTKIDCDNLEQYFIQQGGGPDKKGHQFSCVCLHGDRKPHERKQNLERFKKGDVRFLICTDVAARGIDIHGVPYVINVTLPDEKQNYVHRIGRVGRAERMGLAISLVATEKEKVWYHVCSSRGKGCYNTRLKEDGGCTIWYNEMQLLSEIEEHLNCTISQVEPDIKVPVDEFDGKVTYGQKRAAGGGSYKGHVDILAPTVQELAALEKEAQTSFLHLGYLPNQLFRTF
Description: as §1, §2

[4] = target: T4, recombinant wild-type Archease
T4 chain: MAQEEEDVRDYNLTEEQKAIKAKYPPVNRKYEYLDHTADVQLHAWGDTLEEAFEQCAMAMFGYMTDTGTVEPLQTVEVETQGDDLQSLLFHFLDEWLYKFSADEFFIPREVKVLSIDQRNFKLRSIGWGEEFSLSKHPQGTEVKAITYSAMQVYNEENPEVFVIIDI

[5] = target: T5, recombinant Archease K144A
T5 chain: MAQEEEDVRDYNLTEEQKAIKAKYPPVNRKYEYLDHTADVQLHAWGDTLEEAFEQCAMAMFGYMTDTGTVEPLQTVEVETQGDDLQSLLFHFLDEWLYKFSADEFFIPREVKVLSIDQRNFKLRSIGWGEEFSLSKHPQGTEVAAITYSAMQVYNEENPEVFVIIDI

[6] = target: T6, recombinant Archease D39A
T6 chain: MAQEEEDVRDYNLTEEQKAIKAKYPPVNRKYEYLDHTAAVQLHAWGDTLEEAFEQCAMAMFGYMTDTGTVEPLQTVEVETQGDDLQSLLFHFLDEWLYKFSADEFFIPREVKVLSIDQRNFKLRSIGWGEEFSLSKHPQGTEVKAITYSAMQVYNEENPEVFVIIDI

DDX1 [7] = target: T3, DDX1; test: FLAG affinity purification, co-purifying proteins on a gel (FIG. 1A)

B1: FLAG-DDX1 (protein)
chain: MAAFSEMGVMPEIAQAVEEMDWLLPTDIQAESIPLILGGGDVLMAAETGSGKTGAFSIPVIQIVYETLKDQQEGKKGKTTIKTGASVLNKWQMNPYDRGSAFAIGSDGLCCQSREVKEWHGCRATKGLMKGKHYYEVSCHDQGLCRVGWSTMQASLDLGTDKFGFGFGGTGKKSHNKQFDNYGEEFTMHDTIGCYLDIDKGHVKFSKNGKDLGLAFEIPPHMKNQALFPACVLKNAELKFNFGEEEFKFPPKDGFVALSKAPDGYIVKSQHSGNAQVTQTKFLPNAPKALIVEPSRELAEQTLNNIKQFKKYIDNPKLRELLIIGGVAARDQLSVLENGVDIVVGTPGRLDDLVSTGKLNLSQVRFLVLDEADGLLSQGYSDFINRMHNQIPQVTSDGKRLQVIVCSATLHSFDVKKLSEKIMHFPTWVDLKGEDSVPDTVHHVVVPVNPKTDRLWERLGKSHIRTDDVHAKDNTRPGANSPEMWSEAIKILKGEYAVRAIKEHKMDQAIIFCRTKIDCDNLEQYFIQQGGGPDKKGHQFSCVCLHGDRKPHERKQNLERFKKGDVRFLICTDVAARGIDIHGVPYVINVTLPDEKQNYVHRIGRVGRAERMGLAISLVATEKEKVWYHVCSSRGKGCYNTRLKEDGGCTIWYNEMQLLSEIEEHLNCTISQVEPDIKVPVDEFDGKVTYGQKRAAGGGSYKGHVDILAPTVQELAALEKEAQTSFLHLGYLPNQLFRTF
Xbp1 ligation assay using FLAG-IPs (HSPC117, Q9Y3I0): ligation activity in FLAG-HSPC117 and FLAG-DDX1 IPs were observed

Binder: B2
binding result (FLAG-tagged HSPC117 [1]): binds

binding result (FLAG-tagged HSPC117 [2]): no binding
B3: Archease (other)
chain: AQEEEDVRDYNLTEEQKAIKAKYPPVNRKYEYLDHTADVQLHAWGDTLEEAFEQCAMAMFGYMTDTGTVEPLQTVEVETQGDDLQSLLFHFLDEWLYKFSADEFFIPREVKVLSIDQRNFKLRSIGWGEEFSLSKHPQGTEVKAITYSAMQVYNEENPEVFVIIDI
notes: Endogenous untagged Archease in the cells from which FLAG-HSPC117 was purified

binding result (ASW): no binding | binding result (CGI-99): no binding | binding result (DDX1 [3]): no binding
B4: FLAG-tagged Archease (other)
chain: MAQEEEDVRDYNLTEEQKAIKAKYPPVNRKYEYLDHTADVQLHAWGDTLEEAFEQCAMAMFGYMTDTGTVEPLQTVEVETQGDDLQSLLFHFLDEWLYKFSADEFFIPREVKVLSIDQRNFKLRSIGWGEEFSLSKHPQGTEVKAITYSAMQVYNEENPEVFVIIDI
notes: also called FLAG-Archease; not shown: FLAG tag

Binder: B5
ligation activity of affinity purified human tRNA ligase complex (pre-cleaved tRNA substrates, linear intron) [4]: addition of recombinant Archease boosts ligation activity to a great extent (including circularization of the intron) | ligation of Xbp1 RNA minimal substrates [4]: Addition of recombinant wild-type Archease but not its mutagenized versions strongly stimulated ligation of Xbp1 RNA minimal substrates | ligation of Xbp1 RNA minimal substrates [5]: Addition of recombinant wild-type Archease but not its mutagenized versions strongly stimulated ligation of Xbp1 RNA minimal substrates | ligation of Xbp1 RNA minimal substrates [6]: Addition of recombinant wild-type Archease but not its mutagenized versions strongly stimulated ligation of Xbp1 RNA minimal substrates | binding result (DDX1 [7]): binds
